Assay results published in publication PMC9471973 (Computational and Structural Biotechnology Journal, 2022).
No end group written: not given here.

What was measured:
[1] = target: the molecule itself; test: cross-linking
[2] = target: the molecule itself; test: cross-linking; remark: listed apart in the source
[3] = target: the molecule itself; test: crystal structure

B1: mouse TRIM75 coiled-coil domain with the CCm9A mutation (domain or fragment, UniProt Q3UWZ0 168-222, looked up)
chain: VTLREQAEAAASQATSEAEKAMRAADQEARAAFSRAEDEEMRLEKRLLDNIAALE
With B1 the “stoichiometry N” value [1] was 2.

B2: full-length mouse TRIM75 with N-terminal FLAG tag (natural protein, UniProt Q3UWZ0 1-467, looked up)
chain: MAHVEVLARLQKETKCPICLDDLTDPVTVECGHNFCRSCIKDFWAGQQATSSCPVCRHQCQHRNLRSNAQLGNMIETAQLLQGMENKRHESSTSCERHNQALTLFCEDDLQLLCDQCVEPESHGRHQVLSITEAASLHRKHLQDYSKLLKWEVKEIQGLMSALNKRTVTLREQAEAQRSQLTSECEKLMRFLDQEERAAFSRLEDEEMRLEKRLLDNIAALEHHGSSLRDLLRHLMLTGELSEAKMLSTVKDFYLNCRRQLISPSIFPVQLRRVEYSFPLQYSALQKVIQHFTDNVTLDLKTAHPNLLISKDRTCVTFTKKRQRIPGSSSFTKSPVVLGIPHFNSGRHFWEVQVGKKPKWAIGICKADSSIGERQSPNPWGYWRIVWQGDSFNVSGADPDSRLKAARATSIGVFLDYELGEVSFYGMPEKCHLYTFRDTFSGPVCPYFYIGPQSEPLRLCSATDSEC
With B2 the “stoichiometry N” value [2] was 4.

B3: mouse TRIM75 coiled-coil domain (residues 168-222) (domain or fragment, UniProt Q3UWZ0 168-222, looked up)
chain: VTLREQAEAQRSQLTSECEKLMRFLDQEERAAFSRLEDEEMRLEKRLLDNIAALE
modifications: also: homodimer: interchain disulfide between C185 of two chains
With B3 the “stoichiometry N” value [3] was 4.

B4: truncated mouse TRIM75 protein (136-467) containing the coiled coil and C-terminal domains, N-terminal FLAG tag (domain or fragment, UniProt Q3UWZ0 136-467, looked up)
chain: SLHRKHLQDYSKLLKWEVKEIQGLMSALNKRTVTLREQAEAQRSQLTSECEKLMRFLDQEERAAFSRLEDEEMRLEKRLLDNIAALEHHGSSLRDLLRHLMLTGELSEAKMLSTVKDFYLNCRRQLISPSIFPVQLRRVEYSFPLQYSALQKVIQHFTDNVTLDLKTAHPNLLISKDRTCVTFTKKRQRIPGSSSFTKSPVVLGIPHFNSGRHFWEVQVGKKPKWAIGICKADSSIGERQSPNPWGYWRIVWQGDSFNVSGADPDSRLKAARATSIGVFLDYELGEVSFYGMPEKCHLYTFRDTFSGPVCPYFYIGPQSEPLRLCSATDSEC
For B4, the “stoichiometry N” value [2] was 4.
